The source of these data is article PMC4049228 (Science (New York, N.Y.), 2014).

This test concerns the target T1, Ricinus communis ATXR5 (RcATXR5 a.a. 158–374; nSET and SET domain) (Ricinus communis, UniProt B9RU15 158-374).
T1 sequence: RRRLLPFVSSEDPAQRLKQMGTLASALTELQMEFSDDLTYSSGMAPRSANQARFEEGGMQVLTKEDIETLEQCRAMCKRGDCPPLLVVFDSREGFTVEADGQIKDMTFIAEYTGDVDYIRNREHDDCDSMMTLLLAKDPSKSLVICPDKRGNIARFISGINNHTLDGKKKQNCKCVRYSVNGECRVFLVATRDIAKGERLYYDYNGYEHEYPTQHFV
Put plainly: crystal structure.

Regarding KQLATKAARKSAPATGGVK [histone H3.1 peptide (a.a. 18–36)], the binding result is listed as “binds”.
